According to patent US20160228506A1, “Compositions and Formulations for Prevention and Reduction of Tumorigenesis, Cancer Cell Proliferation and Invasion, and Methods of Production and Use Thereof in Cancer Treatment” (PRONUTRIA, INC., priority 2013, published 2016):

B1: SEQID-00564: protein of the 168 nutritive polypeptide library (protein)
chain: MAPKAEKKPAAKKPAEEEPAAPAEKAPAGKKPDLIKRLPAGKSAGKEGGVDKKGRKKAKKSVETYKIYIFKVLKQVHPDIGISSKAMSIMNSFINDIFEKLAGEAAKLARYNKKPTITSREIQTSVRLVLPGELAKHAVSEGTKAVTKFTSS
modifications: Zea mays
notes: protein of the 168 nutritive polypeptide library
B2: SEQID-00541: protein of the 168 nutritive polypeptide library (protein, listed as Agaricus bisporus)
chain: MVRISVLNDCLKSICNASRRGKRQVIVRPSSKVVVKFLSVMQRHGYIGEFEIIDDHRGGKIIVQLNGRLNKTGVISPRFNVQHNRIEQWINYLLPSRGIGIIVLTTSSGILDHEEARRKNVGGKLLGYVY
modifications: source: /note="var. bisporus"; source: /note="strain H97 / ATCC MYA-4626 / FGSC 10389"
notes: as for B1
B3: SEQID-00552: protein of the 168 nutritive polypeptide library (protein, listed as Saccharomyces cerevisiae)
chain: MSNMMNKFAEKLQGNDDSHQKGKNAKSSNKERDDMNMDMGMGHDQSEGGMKMGHDQSGTKMNAGRGIANDWKTYENMKK
modifications: source: /note="strain ATCC 204508 / S288c"
notes: as for B1
B4: SEQID-00574: protein of the 168 nutritive polypeptide library (protein, listed as Lactobacillus acidophilus)
chain: MPTINQLVRKGRHSKVTKSKSPALNYSYNSMKKESVFNPAPQMRGVATRVGTMTPKKPNSALRKYARVRLSNLIEVTAYIPGEGHNLQEHSVVLIRGGRVKDLPGVRYHIVRGALDTAGVDGRKQSRSKYGAKKD
modifications: source: /note="strain 30SC"
notes: as for B1
B5: SEQID-00573: protein of the 168 nutritive polypeptide library (protein, listed as Cicer arietinum)
chain: MAPAKAEKKPAEKKPAAEKAPAEKKPKAEKKISKEGTSDKKKKRVKKSVETYKIYIFKVLKQVHPDIGISSKAMGIMNSFINDIFEKLAQEASRLARYNKKPTITSREIQTAVRLVLPGELAKHAVSEGTKAVTKFTSS
B6: SEQID-00545: protein of the 168 nutritive polypeptide library (protein, listed as Saccharomyces cerevisiae)
chain: MLSRAIFRNPVINRTLLRARPGAYHATRLTKNTFIQSRKYSDAHDEETFEEFTARYEKEFDEAYDLFEVQRVLNNCFSYDLVPAPAVIEKALRAARRVNDLPTAIRVFEALKYKVENEDQYKAYLDELKDVRQELGVPLKEELFPSSS
modifications: source: /note="strain ATCC 204508 / S288c"
notes: as for B1
B7: SEQID-00599: protein of the 168 nutritive polypeptide library (protein, listed as Agaricus bisporus)
chain: MSESLRYLGSLEGHKGWVTAIATSSENPDMILTASRDKTIIVWQLTREDDSYGYPKRILHGHNHFVSDVVISSDGQFALSSSWDHTLRLWDLNTGVTTRRFVGHSSDVLSVSFSADNRQIVSGSRDRTIKLWNTLGECKFDIKEDGHSEWVSCVRFSPNVANPVIVSAGWDKVVKVWELSKFKLKTNHYGHTGYINTVSVSPDGSLAASGGKDGITMLWDLNEGKHLYSLEAGDVVNALVFSPNRYWLCAATASCVKIFDLESKSIVDELKPTYTDVGEDARQPECVSIAWSADGQTLFTGYTDNAVRVWIVTS
modifications: source: /note="var. bisporus"; source: /note="strain H97 / ATCC MYA-4626 / FGSC 10389"
notes: as for B1
B8: SEQID-00591: protein of the 168 nutritive polypeptide library (protein, listed as Saccharomyces cerevisiae)
chain: MLNRCISRNTRLPVNLRIASRFYSDGPLGGAGPGNPQDIFIKRERAKEDYYARQQEREQLAHVKEQLKEHKKKLENLENKINNLSK
modifications: source: /note="strain ATCC 204508 / S288c"
notes: as for B1
B9: SEQID-00562: protein of the 168 nutritive polypeptide library (protein, listed as Lactobacillus acidophilus)
chain: MKKFASFVLGAVAGCAAGFLAGSLLVSDEQVDDVKNKIKDNDKLQDLKKKYDNGTEIVKNQLASFPKNVEDDSELKDFDDIVIDDSNKDDDVTAGDNAQESVDDLNNAEEEHNAEDAEEDKPEA
modifications: source: /note="strain 30SC"
notes: as for B1
B10: SEQID-00544: protein of the 168 nutritive polypeptide library (protein, listed as Gadus morhua)
chain: MGTRLHQTNTMKFAALALALLLAVGSHAAAMQSDAPSQLAHIRSAVGMYLDQVKDSAARSLDHLDGTEYESYKAQLATSLDSLQASIKTAQAGAEPYTDAAVAQVMEATTEVRASIMADIETLRTGPGPKREALKKVVDGHI
B11: SEQID-00590: protein of the 168 nutritive polypeptide library (protein, listed as Lactobacillus acidophilus)
chain: MANKAELVSEVASKTKLTKKEVAAAVDAIFGSIQDNLAKGEKVQLIGFGTFEVRHRAARKGRNPQTGDEIEIPASEVPAFKPGKALKEAVK
modifications: source: /note="strain 30SC"
notes: as for B1
B12: SEQID-00555: protein of the 168 nutritive polypeptide library (protein)
chain: MQAQEIIRAIEQEEIESVKTNVQKESIPKIYVGDTVKVGVRITEGGKERIQPYQGTVIAMRNGGINETITVRRIFQGVGVERVFLLHSPRIASIKVIMRGKVRRAKLYYLRDRVGKATRVPQRFDRPL
modifications: Arthrospira platensis NIES-39
notes: as for B1
B13: SEQID-00581: protein of the 168 nutritive polypeptide library (protein)
chain: MPKRQRKLAPPRGYKMHVKKGDTVQVIAGRDKGKVGEVISTLPKLSKVVVRDVNVRTKHVKPQQEGEGGRIVNFEAPIHSSNVMLYSTKEKVASRVSYTFTEDGRKVRMLKKTGEVID
modifications: Arthrospira platensis NIES-39
notes: as for B1
B14: SEQID-00570: protein of the 168 nutritive polypeptide library (protein, listed as Saccharomyces cerevisiae)
chain: MFLRNSVLRTAPVLRRGITTLTPVSTKLAPPAAASYSQAMKANNFVYVSGQIPYTPDNKPVQGSISEKAEQVFQNVKNILAESNSSLDNIVKVNVFLADMKNFAEFNSVYAKHFHTHKPARSCVGVASLPLNVDLEMEVIAVEKN
modifications: source: /note="strain ATCC 204508 / S288c"
notes: as for B1
B15: SEQID-00592: protein of the 168 nutritive polypeptide library (protein)
chain: MAQTVVLKVGMSCEGCVGAVKRVLGKMEGVESYDVDIMEQKVTVKGNVTPDAVLQTVSKTGKKTSFWEAEAVTSESATPAGATA
modifications: Zea mays
notes: as for B1
B16: SEQID-00536: protein of the 168 nutritive polypeptide library (protein, listed as Solanum lycopersicum)
chain: MEEEKHHHHHLFHHKDKAEEGPVDYEKEIKHHKHLEQIGKLGTVAAGAYALHEKHEAKKDPEHAHKHKIEEEIAAAAAVGAGGFAFHEHHEKKDAKKEEKKAEGGHHHLF
B17: SEQID-00540: protein of the 168 nutritive polypeptide library (protein)
chain: MARIAGVDLPRDKRVEIGLTYIYGIGLSRSKEILAETGVNPDTRVKDLTDADVAALRSVIQTNYQVEGDLRRLEAMSIKRLMDIGTYRGRRHRMGLPVRGQRTRTNARTRRGVRRTVAGKKKAASKK
modifications: Arthrospira platensis C1
notes: as for B1

Experiment: SGF digest of 168 nutritive polypeptide library, intact protein by LC-MS/MS
Assay type: in vitro ADME
Conditions: 168 nutritive polypeptide library SGF digest, LC-MS/MS spectral counts
Method: The in vitro intact half-life of multiple polypeptides in a complex mixture was determined using the simulated gastric in vitro digestion described above. Briefly, the 168 nutritive polypeptide library was generated as described herein by cloning, transforming, and expressing a gene library encoding 168 proteins as a single mixture. The recombinantly expressed proteins were purified from host cell proteins by IMAC purification as described herein.
The 168 Protein Library was treated with SGF as described above and the t=0 and t=10 min samples were analyzed for intact protein by LC-MS/MS. To begin, 10 μg of sample was loaded onto a 10% SDS-PAGE gel (Invitrogen) and run approximately 5 cm into the gel. The gel was excised into ten fractions from 100 kD to the dye front and the gel slices were processed by washing with 25 mM ammonium bicarbonate, followed by acetonitrile. Gel fractions were then reduced with 10 mM dithiothreitol at 60° C., followed by alkylation with 50 mM iodoacetamide at room temperature. Finally, the samples were digested with trypsin (Promega) at 37° C. for 4 h and the digestions were quenched with the addition of formic acid. The samples were then analyzed by nano LC/MS/MS using an EasynLC 1000 HPLC system interfaced to a ThermoFisher Q Exactive. Peptides were loaded on a trapping column and eluted over a 75 μm analytical column at 350 nL/min; both columns were packed with PepMap C18 3 μm resin (ThemoFisher). A 1 hour gradient was employed. The mass spectrometer was operated in data-dependent mode, with MS and MS/MS performed in the Orbitrap at 70,000 FWHM resolution and 17,500 FWHM resolution, respectively. The fifteen most abundant ions were selected for MS/MS. Data were searched against an appropriate database using Mascot to identify peptides. Mascot DAT files were parsed into the Scaffold software for validation, filtering and to create a nonredundant list per sample. Data were filtered at 1% protein and peptide false discovery rate (FDR) and requiring at least two unique peptides per protein. A full list of detected proteins and their spectral counts (SpC) was generated and reported as a function of each collected gel fraction. SpC are a count of the number of spectra identified for a given protein and are used as a measure of relative protein abundance (Liu, H. et al., Analytical Chemistry 2004, 76: 4193-4201). To calculate the percentage of intact protein remaining at the 10 min time point of the SGF digest the number of SpC representative of intact peptide in the t=10 min sample were divided by the number of SpC representative of intact peptide in the t=0 min sample. The number of SpC representative of intact peptide was defined as the sum of the SpC in the fraction with the highest number of SpC assigned to that protein in the t=0 min sample and the two flanking fractions.

Molecule	% Intact Protein at 10 min
B1	89.6%
B2	0%
B3	79%
B4	0%
B5	66.7%
B6	0%
B7	0%
B8	20%
B9	0%
B10	0%
B11	0%
B12	6.8%
B13	33.3%
B14	91.4%
B15	24.3%
B16	11.8%
B17	0%
